{
  "source": "patent US11872307B2",
  "about": "“Liquisoft capsules” (PATHEON SOFTGELS INC., priority 2015, dated 2024)",
  "test": "Appearance / precipitation of matrix fill",
  "assay_type": "physicochemical",
  "conditions": "dextromethorphan hydrobromide 30 mg, menthol 5 mg",
  "procedure": "Formulas 14, 15, and 16 were the initial matrix prototypes for dextromethorphan hydrobromide (30 mg) and menthol (5 mg). Three different taste-masking agents were tested: mannitol, thaumatin (Talin®) and glycyrrhizic acid salts (MagnaSweet®).\nThaumatin and glycyrrhizic acid salts were employed with the lower active pharmaceutical ingredient dose, individually and as a combination. […] Thus, the glycyrrhizic acid salts were not further assessed for chemical stability. Thus, Formula 19 was formulated using thaumatin and used for excipient compatibility studies.",
  "data": [
    {"substance": "Thaumatin", "values": [
      {"measurement": "appearance of matrix fill", "value": "hazy appearance"}
    ]}
  ]
}
